{"source": "patent US20260209386A1", "about": "(MYTHIC THERAPEUTICS, published 2026)", "binders": {"B1": {"name": "MYT11258 (antibody, V domains shown)", "VH": "EVQLVESGGGLVQPGGSLRLSCTASGIDLHRYSMGWVRQAPGKGLEWVGIISYGGSTYYASWAKGRFTISRDTSKNTVYLQMNSLRAEDTAVYFCARVGYPGYSGYGYAFDAFDPWGQGTLVTVSS", "VL": "EIVMTQSPSTLSASVGDRVIITCQSSKSVYNDNWLSWYQQKPGKAPKLLIYGASTLASGVPSRFSGSGSGAEFTLTISSLQPDDFATYYCAGGYSSSSDNGFGQGTKLTVL", "notes": "IgG"}, "B2": {"name": "MYT11263 (antibody, V domains shown)", "VH": "B1 VH with H30S, G35H", "VL": "B1 VL", "notes": "IgG"}, "B3": {"name": "MYT11267 (antibody, V domains shown)", "VH": "B1 VH with H30S, Y53H", "VL": "B1 VL", "notes": "IgG"}, "B4": {"name": "MYT11272 (antibody, V domains shown)", "VH": "B1 VH with H30S, Y58H", "VL": "B1 VL", "notes": "IgG"}, "B5": {"name": "MYT11279 (antibody, V domains shown)", "VH": "B1 VH with H30S, G65H", "VL": "B1 VL", "notes": "IgG"}, "B6": {"name": "MYT11285 (antibody, V domains shown)", "VH": "B1 VH with H30S, P101H", "VL": "B1 VL", "notes": "IgG"}, "B7": {"name": "MYT11289 (antibody, V domains shown)", "VH": "B1 VH with H30S, G105H", "VL": "B1 VL", "notes": "IgG"}, "B8": {"name": "MYT11309 (antibody, V domains shown)", "VH": "B1 VH with H30S", "VL": "B1 VL with V29H", "notes": "IgG"}, "B9": {"name": "MYT11322 (antibody, V domains shown)", "VH": "B1 VH with H30S", "VL": "B1 VL with A57H", "notes": "IgG"}, "B10": {"name": "MYT11349 (antibody, V domains shown)", "VH": "EVQLVESGGGLVQPGGSLRLSCTASGIDLSNYAVIWVRQAPGKGLEWVGHIYTYDTTYYANWAKGRFTISRDTSKNTVYLQMNSLRAEDTAVYFCARSFSDISDLIKLWGQGTLVTVSS", "VL": "EIVMTQSPSTLSASVGDRVIITCQASQSLYNNKDLAWYQQKPGKAPKLLIYEASKLASGVPSRFSGSGSGAEFTLTISSLQPDDFATYYCLGEFSCGSGDCLAFGQGTKLTVL", "notes": "IgG"}, "B11": {"name": "MYT11352 (antibody, V domains shown)", "VH": "B10 VH with H50I, T53H", "VL": "B10 VL", "notes": "IgG"}, "B12": {"name": "MYT11354 (antibody, V domains shown)", "VH": "B10 VH with H50I, D55H", "VL": "B10 VL", "notes": "IgG"}, "B13": {"name": "MYT11355 (antibody, V domains shown)", "VH": "B10 VH with H50I, T56H", "VL": "B10 VL", "notes": "IgG"}, "B14": {"name": "MYT11356 (antibody, V domains shown)", "VH": "B10 VH with H50I, T57H", "VL": "B10 VL", "notes": "IgG"}, "B15": {"name": "MYT11357 (antibody, V domains shown)", "VH": "B10 VH with H50I, Y58H", "VL": "B10 VL", "notes": "IgG"}, "B16": {"name": "MYT11363 (antibody, V domains shown)", "VH": "B10 VH with H50I, K64H", "VL": "B10 VL", "notes": "IgG"}, "B17": {"name": "MYT11369 (antibody, V domains shown)", "VH": "B10 VH with H50I, S100H", "VL": "B10 VL", "notes": "IgG"}, "B18": {"name": "MYT11376 (antibody, V domains shown)", "VH": "B10 VH with H50I, K107H", "VL": "B10 VL", "notes": "IgG"}, "B19": {"name": "MYT11390 (antibody, V domains shown)", "VH": "B10 VH with H50I", "VL": "B10 VL with N31H", "notes": "IgG"}, "B20": {"name": "MYT11392 (antibody, V domains shown)", "VH": "B10 VH with H50I", "VL": "B10 VL with K33H", "notes": "IgG"}, "B21": {"name": "MYT11393 (antibody, V domains shown)", "VH": "B10 VH with H50I", "VL": "B10 VL with D34H", "notes": "IgG"}, "B22": {"name": "MYT11394 (antibody, V domains shown)", "VH": "B10 VH with H50I", "VL": "B10 VL with L35H", "notes": "IgG"}, "B23": {"name": "MYT11396 (antibody, V domains shown)", "VH": "B10 VH with H50I", "VL": "B10 VL with E52H", "notes": "IgG"}, "B24": {"name": "MYT11398 (antibody, V domains shown)", "VH": "B10 VH with H50I", "VL": "B10 VL with S54H", "notes": "IgG"}, "B25": {"name": "MYT11409 (antibody, V domains shown)", "VH": "B10 VH with H50I", "VL": "B10 VL with S98H", "notes": "IgG"}, "B26": {"name": "MYT11410 (antibody, V domains shown)", "VH": "B10 VH with H50I", "VL": "B10 VL with G99H", "notes": "IgG"}}, "note": "Substitutions are numbered along the chain they refer to.", "data": [{"molecular_target": "T1, Human PTK7/CCK4 Protein, His Tag, Acro Biosystems PT7-H52H3 (human, UniProt Q13308 31-704)", "T1 construct": "bought protein; also called Human PTK7 Protein, His Tag, Acro Biosystems; not shown: His tag", "T1 sequence": "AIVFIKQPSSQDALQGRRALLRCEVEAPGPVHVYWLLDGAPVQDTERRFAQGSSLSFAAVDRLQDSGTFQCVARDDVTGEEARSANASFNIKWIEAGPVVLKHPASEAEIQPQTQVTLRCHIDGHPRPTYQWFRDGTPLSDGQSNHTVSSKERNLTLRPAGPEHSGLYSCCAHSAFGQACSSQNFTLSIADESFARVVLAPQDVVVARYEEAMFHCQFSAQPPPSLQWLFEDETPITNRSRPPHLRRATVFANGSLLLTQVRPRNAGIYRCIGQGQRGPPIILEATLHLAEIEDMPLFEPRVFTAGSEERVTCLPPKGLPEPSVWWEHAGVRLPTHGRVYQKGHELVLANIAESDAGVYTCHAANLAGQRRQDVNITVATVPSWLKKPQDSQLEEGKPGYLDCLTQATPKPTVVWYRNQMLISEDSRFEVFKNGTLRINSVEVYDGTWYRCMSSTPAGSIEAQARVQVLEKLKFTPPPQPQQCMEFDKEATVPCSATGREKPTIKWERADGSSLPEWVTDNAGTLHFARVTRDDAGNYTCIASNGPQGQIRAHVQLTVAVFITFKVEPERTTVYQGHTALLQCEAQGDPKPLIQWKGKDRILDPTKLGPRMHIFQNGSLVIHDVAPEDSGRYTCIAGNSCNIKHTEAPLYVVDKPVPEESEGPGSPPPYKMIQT", "experiment": "BLI, antibody on anti-human Fc sensor, 50 nM PTK7", "values": [{"binder": "B1", "binding result": "binds"}, {"binder": "B2", "binding result": "binds"}, {"binder": "B3", "binding result": "binds"}, {"binder": "B4", "binding result": "binds"}, {"binder": "B5", "binding result": "binds"}, {"binder": "B6", "binding result": "binds"}, {"binder": "B7", "binding result": "binds"}, {"binder": "B8", "binding result": "binds"}, {"binder": "B9", "binding result": "binds"}, {"binder": "B10", "binding result": "binds"}, {"binder": "B11", "binding result": "binds"}, {"binder": "B12", "binding result": "binds"}, {"binder": "B13", "binding result": "binds"}, {"binder": "B14", "binding result": "binds"}, {"binder": "B15", "binding result": "binds"}, {"binder": "B16", "binding result": "binds"}, {"binder": "B17", "binding result": "binds"}, {"binder": "B18", "binding result": "binds"}, {"binder": "B19", "binding result": "binds"}, {"binder": "B20", "binding result": "binds"}, {"binder": "B21", "binding result": "binds"}, {"binder": "B22", "binding result": "binds"}, {"binder": "B23", "binding result": "binds"}, {"binder": "B24", "binding result": "binds"}, {"binder": "B25", "binding result": "binds"}, {"binder": "B26", "binding result": "binds"}]}]}
